Measurements as given in patent US20240270819A1 (ELANCO US, published 2024).
Values belong to the molecule of their own block, whether it stands above or below them.

How the values were obtained:
[1] = molecular target: canine FcRn with a poly-His tag / canine B2M heterodimer complex (canine); experiment: SPR (Biacore T200), pH 6.0; biotinylated FcRn/B2M immobilised, Fc as analyte
[2] = molecular target: T1, canine IL4 (Sino Biological Inc, Cat #70021-DNAE-5) (canine, UniProt O77762 25-132); experiment: cell-based or functional assay
T1 sequence (looked up): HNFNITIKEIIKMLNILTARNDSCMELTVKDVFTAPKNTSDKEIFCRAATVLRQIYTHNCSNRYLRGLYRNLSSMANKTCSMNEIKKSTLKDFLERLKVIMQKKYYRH

- koff [1]: 0.241 s⁻¹
Molecule: variant canine IgG-B Fc polypeptide L(23)S

- TF1 cell proliferation assay (CellTiter-Glo luminescence), IC50 by 4 parameter logistic fit [2]: 2 nM
B1: canine IL4RECD-IL13RECD-IgGB Fc (Fc fusion)
chain: SGSVKVLHEPSCFSDYISTSVCQWKMDHPTNCSAELRLSYQLDFMGSENHTCVPENREDSVCVCSMPIDDAVEADVYQLDLWAGQQLLWSGSFQPSKHVKPRTPGNLTVHPNISHTWLLMWTNPYPTENHLHSELTYMVNVSNDNDPEDFKVYNVTYMGPTLRLAASTLKSGASYSARVRAWAQTYNSTWSDWSPSTTWLNYYEPGGGSGTETQPPVTNLSVSVENLCTVIWTWDPPEGASPNCTLRYFSHFDNKQDKKIAPETHRSKEVPLNERICLQVGSQCSTNESDNPSILVEKCTPPPEGDPESAVTELQCVWHNLSYMKCTWLPGRNTSPDTNYTLYYWHSSLGKILQCEDIYREGQHIGCSFALTNLKDSSFEQHSVQIVVKDNAGKIRPSFNIVPLTSHVKPDPPHIKRLFFQNGNLYVQWKNPQNFYSRCLSYQVEVNNSQTETNDIFYVEEAKCQNSEFEGNLEGTICFMVPGVLPDTLNTVRIRVRTNKLCYEDDKLWSNWSQAMSIGENTDPTPKRENGRVPRPPDCPKCPAPEMLGGPSVFIFPPKPKDTLLIARTPEVTCVVVDLDPEDPEVQISWFVDGKQMQTAKTQPREEQFNGTYRVVSVLPIGHQDWLKGKQFTCKVNNKALPSPIERTISKARGQAHQPSVYVLPPSREELSKNTVSLTCLIKDFFPPDIDVEWQSNGQQEPESKYRTTPPQLDEDGSYFLYSKLSVDKSRWQRGDTFICAVMHEALHNHYTQESLSHSPGK
modifications: Biotinylated when captured on the tips in the sequential binding experiment; secreted from CHO cells, so glycosylated.
